Results on 41 sequences are retold here after the nanobody polyreactivity screen of Harvey et al. (2022).

The series can be described thus: yeast display, Sf9 membrane polyspecificity reagent, FACS + sequencing; frameworks hold sequencing errors. A digest of the protocol: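 Nanobodies from a synthetic yeast display library (Saccharomyces cerevisiae BJ5465), induced 36–48 hours with galactose, were stained 1 hour at 4 °C with 10% biotinylated, detergent-solubilized Sf9 membrane reagent, enriched on streptavidin microbeads, then FACS-sorted. Anti-HA (expression) and streptavidin (reagent binding) fluorescence set low and high (top ~1%) gates. Polyreactivity labels come from the gate of origin. Genes were colony-PCR amplified, MiSeq 2 × 250 sequenced and filtered by CDR length.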
Regarding “QVQLVESGGGLVQAGGSLRLSCAASGYTFRVYTMGWYRQAPGKERELVAAISRRGSRTYYADSVKGRFTISRDNAKNSVYLQMNSLKPEDTAVYYCAAGIPYPDDYWGQGTQVTVSS”, the “polyreactivity (PSR sort gate)” value was “high polyreactivity”.
Next, “QVQLVESGGGLVQAGGSLRLSCAASGYTFRVYTMGWYRQAPGKERELVAAISRRGSRTYYADSVKGRFTISRDNAKNTVYLQMNSLKPEDTAVYYCAAGIPYPDDYWGQGTQVTVSS”: “high polyreactivity”.
Under “QVQLVESGGGLVQAGGSLRLSCAASGYTFRYYAMGGYRQAPGKERELVADINSGDITNYADSVKGRFTISRDNAKNTVYLQMNSQKPEDTAVYYCAPRTFSLYDYWGQGTQVTVSS” stands “low polyreactivity”; under “QVQLVESGGGLVQAGGSLRLSCAASGYTFRYYAMGWYRQAPGKERELVAAINWSGGSTYYADSVKGRFTISRDNAKNTVYLQMNSLKPEDTAVYYCAADPDGDLDIDYDYWGQGTQVTVSS”, “low polyreactivity”; under “QVQLVESGGGLVQAGGSLRLSCAASGYTFRYYAMGWYRQAPGKERELVARITGRAGSTYYADSVKGRFTISRDNAKNTVYLQMNSLKPEDTAVYYCAASIREGFYWGQGTQVTVSS”, “high polyreactivity”.
Under “QVQLVESGGGLVQAGGSLRLSCAASGYTFSGYAMGWYRQAPGKERELVAAISGSSTRTYYADSVKGRFTITRDYAKNTVYFQMNSLKPEDTAVYYCAARFRHGGPYKYGYWGHGTQVTVSS” stands “high polyreactivity”; under “QVQLVESGGGLVQAGGSLRLSCAASGYTFSHYAMGWYRQAPGKERELVAGITWSGGSTYYADSVKGRFTISRENSKNTVYLQMNSLKPEDTSVYYCAAKYYWYYSYSGIPLFDYWGQGTQVTVSS”, “low polyreactivity”; under “QVQLVESGGGLVQAGGSLRLSCAASGYTFSRYAMGLYRQAPGKERELVAAISHSAGRTYYADSVKGRFTISRDNAKNTVYLKMNSLKPEDTAVYYCATVLYSVPRYNYWGQGSQVTVSS”, “high polyreactivity”.
In the case of “QVQLVESGGGLVQAGGSLRLSCAASGYTFSRYAMGWYRQAPGKERELVAAITGRGGSTYYADSVKGRFTISRDNAKNTVYLQMNSLKPEDTAVYYCAAPFGWRPLPISKVTSDYWGQGTQVTVSS”, the “polyreactivity (PSR sort gate)” value is listed as “high polyreactivity”.
Under “QVQLVESGGGLVQAGGSLRLSCAASGYTFSYYAMGWYRQAPGKERELVAAISWSGGSTYYADSVKGRFTISRDNAKNTVYLQMNSLKPEDTAFYYCAAKPWRGTLMRYGYWGQGTQVTVSS” stands “high polyreactivity”.
Under “QVQLVESGGGLVQAGGSLRLSCAASGYTFTIYAMGWYRQAPGKERELVAAITGRGGRTNYADSVKGRFTISRDNAKNTVYLQMNSLKPEDTAVYYCAKGGRSSSPRYRFDYWGQGTQVTVSS” stands “high polyreactivity”; under “QVQLVESGGGLVQAGGSLRLSCAASGYTFWDYAMGWYRQAPGKEREFVAGISFSDGGTYYADSVKGRFTITRDNAKNTVYLQMNSLKPEDTAVYYCAATYPYSWVYSGYYYWGQGTQVTVSS”, “low polyreactivity”.
Next, “QVQLVESGGGLVQAGGSLRLSCAASGYTFWFYAMGWYRQAPGKEREFVATISRSGGSTYYADSVKGRFTISRDNAKNTVYLQMNSLKPEDTAVYYCNARGPRSHRYDYWGQGTQVTVSS”: “high polyreactivity”; “QVQLVESGGGLVQAGGSLRLSCAASGYTFWQYAMGWYRQAPGKERELVATITSRGGSTYYADSVKGRFTISRDNAKNTVYLQMNSLKPEDTAVYYCNARRRYSTRRSDYWGQGTQVTVSS”: “high polyreactivity”; “QVQLVESGGGLVQAGGSLRLSCAASGYTFYANAMGWYRQAPGKEREFVASITWSGGSTYYADSVKGRFTISRDNAKNTVYLQMNSLKPEDTAVYYCADESWFKYDYWGQGTQVTVSS”: “low polyreactivity”.
Consider “QVQLVESGGGLVQAGGSLRLSCAASGYTFYDYAMGWYRQAPGKERELVARINGGGGTNYADSVKGRFTISRDNAKNTVYLQMNSLKPEDTAVYYCAADVYFRQGDVDLLRYDYWGQGTQVTVSS”, for which the “polyreactivity (PSR sort gate)” value is “low polyreactivity”.
On to “QVQLVESGGGLVQAGGSLRLSCAASGYTFYFYAMGCYRQAPGKERELVAAITGGGTTSYADSVKGRFTISRDNAKNTVYLQMNSLKPEDTAVYYCNVLFADKSDYWGQGTQVTVSS”, for which the “polyreactivity (PSR sort gate)” value is “low polyreactivity”.
Under “QVQLVESGGGLVQAGGSLRLSCAASGYTFYFYAMGWYRQAPGKERELVASITWRGGSTYYADSVKGRFTISRDNAKNTVYLQMNSLKPEDTAVYYCAKQVYYIYDYWGQGTQVTVSS” stands “low polyreactivity”; under “QVQLVESGGGLVQAGGSLRLSCAASGYTFYRNAMGWYRQAPGKERELVASLRDDGSTYYADSEKGRFTISRDNAKNTVYLHMNSLKPEDTAVYYCNSDYPYIWHKGARYWHENDYWGQGTQVTVSS”, “low polyreactivity”.
Under “QVQLVESGGGLVQAGGSLRLSCAASGYTFYVYAMGWYRQAPGKERELVADISTSDGSTYYADSVKGRFTISRDNAKNTVYLQMNSLKPEDTAVYYCNTDGSHGLYDWFWPANNDDWGQGTQVSVSS” stands “low polyreactivity”; under “QVQLVESGGGLVQAGGSLRLSCAASGYTIRGYVMGWYRQAPGKERELVAAISASGGRTYYADSVKGRFTISRDNAKNTVYLQMNSLKPEHTAVYYCAASKSKISSLDYWGQGTQVTVSS”, “high polyreactivity”; under “QVQLVESGGGLVQAGGSLRLSCAASGYTIYRYAMGWYRQAPGNERELVAAISSAGTTNYADSVKGRFTISRDNAKNTVYLQINSLKPEDTAVYYCNKRGRNHNSLKYGYWGQGTQVTVSS”, “high polyreactivity”.
Under “QVQLVESGGGLVQAGGSLRLSCAASGYTIYYYAMGWYRQAPGKERELVARITSGGSTYYADSVKGRFTISRDNAKNTVYLQMNSLKPVDTAVYYCNVEVSVEVAYWGQGTQVTVSS” stands “low polyreactivity”; under “QVQLVESGGGLVQAGGSLRLSCAASGYTLRYYAMGWYRQAPGKERELVAAITYSGGSTYYADSVKGRFTISRDHAKNTVYLQMNSLKPEDTAVYYCAADYRAPLDYWGQGTQVTVSS”, “low polyreactivity”; under “QVQLVESGGGLVQAGGSLRLSCAASGYTQPANGMGLYRQAPGKERELVAAISFIAGSTYYADSVKGRFTISRDNAKNTVYLQMNSLKPEDTAVYYCATQFPPSTIYDYWGQGTQVSVSS”, “low polyreactivity”.
For the sequence “QVQLVESGGGLVQAGGSLRLSCAASGYTSYRYAMGWYRQAPGKERELVAAINWSGSSTYYADSVKGRFTISRDYAKNTVYLQMNSLKPEDTAVYYCAARRYRSPIGGYDYWGQGTQVTVSS”, the “polyreactivity (PSR sort gate)” value is given as “high polyreactivity”.
Under “QVQLVESGGGLVQAGGSLRLSCAASGYTYPYYTMGWYRQAPGKERELVAAISSGGRTKYADSVKGRFTISRDNAKNTVYLQMNSLKPEDTAVYYCAKSGNYRTGRFDYWGQGTQVTVSS” stands “high polyreactivity”.
Turning to “QVQLVESGGGLVQAGGSLRLSCAASMGLYRQAPGKERDLVATITSDAGTNYADSVKGRFTISRDNAKNTVYLQRNSLKPEDTAVYYCNADGYDSSDFGEGDYWGQVTQVTVSS”, the “polyreactivity (PSR sort gate)” value is reported as “low polyreactivity”.
Regarding “QVQLVESGGGLVQAGGSLRLSCAASMGWYRQAPGKERELVAITRTTRTYYADSVKGRFTISRDNAKNTVYLQMNSLKPVDTAVYYCAAPNGPSPYWYNYWGQGTQVTVSS”, the “polyreactivity (PSR sort gate)” value was “low polyreactivity”.
Next, “QVQLVESGGGLVQAGGSLRLSCAASPLTFRYYDMGWYRQAPGKERELVAAISRTGRTNYADSVKGRFTISRDNAKNTVYVQMNSLKPEDTAVYYCAATGIYAKALLWYDYWGQGTQVTVSS”: “high polyreactivity”.
Under “QVQLVESGGGLVQAGGSLRLSCAASRFIFSWYAMGWYRQAPGTERELVATISSSGGRTHYADSVKGRFTISRDNAKNTVDLHMKSLKPEVTEVYYCAAHPFYYFTTVYYWGQGTQVTVSS” stands “high polyreactivity”; under “QVQLVESGGGLVQAGGSLRLSCAASRGIFGYNAMGWYRQAPGKERELVARISSSGGSTYYADSVKGRFTISRDNAKNTVYLQMNSLKPEDTAVYYCNTASNRYPGWRAEFDYWGQGTQVTVSS”, “low polyreactivity”.
Next, “QVQLVESGGGLVQAGGSLRLSCAASRIFFNGYAMGWYRQAHGSERELVAAITVSGGRTFYADSVKGRFTISRDNAKNTVYLQMNSLKPEDTAVYYCNAVPRRVRLYDYWGQGTQVNVSS”: “high polyreactivity”.
Consider “QVQLVESGGGLVQAGGSLRLSCAASRITFYPNDMGWDRQAPGKERELVAAITTNDGDTYYADSVKGRFTISRDNAKNTVYLQMISLQPEDTAVYYCAADSGSTSEYEYLGQGTQVTVSS”, for which the “polyreactivity (PSR sort gate)” value is “low polyreactivity”.
Next, “QVQLVESGGGLVQAGGSLRLSCAASRLTFQDYAMGWYRQAPGKERELVAGISRSGGRTNYADSVKGRFTISRDNAKNTVYLQMNSLKPEDTAVYYCATPYRRLNTWIYDYWGQGTQVTVSS”: “high polyreactivity”; “QVQLVESGGGLVQAGGSLRLSCAASRLTFQQYAMGWYRQAPGKERELVAAITSDGASTNYADSVKGRFTISRDYAKNTVYLQMNSLKPEDTAVYYCAARRRSRQYRYDYWGQGTQVTVSS”: “high polyreactivity”; “QVQLVESGGGLVQAGGSLRLSCAASRNIFRYYVMGWYRPAPGKEREFVAAISYRAGSTYYADSVKGSFTISRDNAKNTVYLQMNSLKPEDTAFYYCNAERTRDFYEYDYWGQGTQVTVSS”: “low polyreactivity”.
On to “QVQLVESGGGLVQAGGSLRLSCAASRNTFVPYVMGWYRQAPGKERELVAAISRRGGSTRYADSVKGRFTISRDNAKNTVYLQMNSLKPEDTAVYYCAAKRKSYYSYNFDYWGHGTQVTVSS”, for which the “polyreactivity (PSR sort gate)” value is recorded as “high polyreactivity”.
Under “QVQLVESGGGLVQAGGSLRLSCAASRSIFDLYAMGWYRQAPGKEREFVAAITWRGSSTYYADSVKGRFTISRDNAKNNVYLQMNSLKPEDTAVYYCAATHNQVVARYAFIYWGQGTQVTVSS” stands “high polyreactivity”; under “QVQLVESGGGLVQAGGSLRLSCAASRSIFGTYAMGWYRQAPGKERELVAAISYSGGSTYYADSVKGRFTISRDNGKYTVYLQMNSLKPEDTAVYYCNKSRFYWGYYWGQGTQVTVSS”, “low polyreactivity”.
As to “QVQLVESGGGLVQAGGSLRLSCAASRSIFRSYAMGWYTQAPGKERELVAAITSSSGSTYYADSVKGRFTISRDNAKNTVYLQMNSLKPEDTAVYYCNAPYWKSRFRAYYHWGQGTQVTVSS”, the “polyreactivity (PSR sort gate)” value is on record as “high polyreactivity”.
